Patent US20220073617A1 (published 2022)
Where two headings read alike, the source gives them in different places.

What was measured:
[1] = molecular target: T1, monovalent hVISTA-ECD (amino acids 32-193 of SEQ ID NO: 1 with a 7xHis tail) (UniProt Q9H7M9 33-193); assay: SPR; pH 6.0
[2] = molecular target: T1, monovalent hVISTA-ECD (amino acids …); assay: SPR; pH 6.0; remark: listed apart in the source

T1 sequence (Q9H7M9 other isoform, or with tags, fused parts or gaps): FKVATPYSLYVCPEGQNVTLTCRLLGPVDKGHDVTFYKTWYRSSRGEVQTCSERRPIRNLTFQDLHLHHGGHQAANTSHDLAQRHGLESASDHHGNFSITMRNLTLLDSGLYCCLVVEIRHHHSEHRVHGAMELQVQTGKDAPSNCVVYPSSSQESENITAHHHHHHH

Kd [1]: 4.5 nM
Kd [2]: 4.5 nM
B1: P1-061029.IgG1.3 (antibody, V domains shown)
VH: EVQLVESGGGLVQPGKSLRLSCAASGFTLDDYAMHWVRQAPGKGLEWVSGINWNSANIGYADSVKGRFTISRDNAKNSLYLQMNSLRTEDTALYYCAKVPGYSGGWIDAFDVWGQGTMVTVSS
VL: not shown
